Assay results from patent publication US20150104459A1 (published 2015).

B1: TCN-560 (5084_P10) (antibody, V domains shown)
VH: EVQLVESGGGLVQPGGSLRLSCAASGFIFRNYWMSWVRQAPGKGLEWVANIKQDGREKYYVDSLRGRVNISRDNAENSLYLHMNSLRVEDTAVYFCARARMVVVTGDGFDVWGHGTMVTVSS
VL: DIQMTQSPSSLSASVGDRVTITCRASQNIKRYFNWYQQKPGKAPKLLIYAASNLENGVPSRFSGSGSGTDFTLTISSLQPEDFATYYCQQSFSKSWTFGQGTNVDIK
B2: TCN-556 (5089_K12) (antibody, V domains shown)
VH: QVQLVQSGAEVKKPGASVKVSCKASGYTFIGYDMHWVRQAPGQGLEWMGWINAKRGGTNYAQKFQGRVTMTRDTSISTAYMELNSLRSDDTAVYYCARGVGSRTTIFGVLNPEFDYWGQGTLVTVSS
VL: QSALTQPPSASGSPGQSVTISCTGSSSDVGGYDYVSWYQQHPGKAPKLLIYEVTKRPSGVPDRFSGSKSGNTASLTVSGLQAEDEADYYCSSYAGNYNHVFGPGTKVTVL

Biological target: recombinant soluble homotrimeric HA, A/common magpie/Hong Kong/5052/07 (H5N1) (influenza A virus A/common magpie/Hong …)
Test: microarray, trimeric HA, transfection supernatant

Row | Binder | Trimeric HA Binding RLU [RLU]
1 | B1 | 30500
2 | B2 | 20100
